Data taken from PMC10491584, “Structural convergence endows nuclear transport receptor Kap114p with a transcriptional repressor function toward TATA-binding protein” (Nature Communications, 2023).

Experiments:
Kap114pΔ(932-941) = biological target: T1, Kap114pΔ(932-941) (S. cerevisiae, UniProt P53067 1-1004, Δ(932-941)); experiment: ITC; MicroCal iTC200, 25 °C, 20 mM HEPES pH 7.4, 150 mM NaCl; low concentration: 25 µM wild type or mutant Kap114p in the sample cell, 250 µM wild type or mutant yTBPC in the syringe; triplicate; details: both partners purified
T1 construct: also called GST-Kap114p (Δ932-941); source: E. coli Rosetta, purified (GST resin, MonoQ, Superdex 200)
T1 sequence (looked up): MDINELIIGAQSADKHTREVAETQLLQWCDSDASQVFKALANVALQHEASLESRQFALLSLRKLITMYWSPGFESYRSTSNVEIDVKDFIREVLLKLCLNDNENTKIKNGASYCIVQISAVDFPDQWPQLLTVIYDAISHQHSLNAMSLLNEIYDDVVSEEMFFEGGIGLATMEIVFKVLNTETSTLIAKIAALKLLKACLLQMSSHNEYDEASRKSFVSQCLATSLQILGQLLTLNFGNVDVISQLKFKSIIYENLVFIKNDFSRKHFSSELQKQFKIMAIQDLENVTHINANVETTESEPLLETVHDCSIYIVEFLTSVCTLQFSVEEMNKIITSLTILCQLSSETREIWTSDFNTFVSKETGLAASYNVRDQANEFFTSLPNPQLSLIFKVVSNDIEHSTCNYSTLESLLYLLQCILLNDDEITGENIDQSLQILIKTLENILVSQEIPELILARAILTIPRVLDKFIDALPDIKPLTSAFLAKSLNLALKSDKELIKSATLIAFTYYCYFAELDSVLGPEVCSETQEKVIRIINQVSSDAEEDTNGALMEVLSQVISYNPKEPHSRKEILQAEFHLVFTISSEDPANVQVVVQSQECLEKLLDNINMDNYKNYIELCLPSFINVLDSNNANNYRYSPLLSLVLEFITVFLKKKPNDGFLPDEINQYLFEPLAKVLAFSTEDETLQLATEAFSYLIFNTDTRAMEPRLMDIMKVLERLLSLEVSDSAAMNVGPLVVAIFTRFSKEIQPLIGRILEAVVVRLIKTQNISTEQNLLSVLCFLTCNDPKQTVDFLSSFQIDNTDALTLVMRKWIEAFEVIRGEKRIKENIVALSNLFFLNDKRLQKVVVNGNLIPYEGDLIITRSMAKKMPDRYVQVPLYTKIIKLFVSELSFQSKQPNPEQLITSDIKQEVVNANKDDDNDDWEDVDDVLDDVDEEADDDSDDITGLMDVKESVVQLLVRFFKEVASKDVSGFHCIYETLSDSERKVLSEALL

Kap114pΔ(Y933) = biological target: T2, Kap114pΔ(Y933) (S. cerevisiae, UniProt P53067 1-1004, ΔY933); experiment: ITC; MicroCal iTC200, 25 °C, 20 mM HEPES pH 7.4, 150 mM NaCl; high concentration: 50 µM wild type or mutant Kap114p in the sample cell, 500 µM wild type or mutant yTBPC in the syringe; triplicate; details: both partners purified
T2 construct: Kap114p, S. cerevisiae, full length with residue Y933 deleted; also called GST-Kap114p (Δ933); source: E. coli Rosetta, purified (GST resin, MonoQ, Superdex 200)
T2 sequence (looked up): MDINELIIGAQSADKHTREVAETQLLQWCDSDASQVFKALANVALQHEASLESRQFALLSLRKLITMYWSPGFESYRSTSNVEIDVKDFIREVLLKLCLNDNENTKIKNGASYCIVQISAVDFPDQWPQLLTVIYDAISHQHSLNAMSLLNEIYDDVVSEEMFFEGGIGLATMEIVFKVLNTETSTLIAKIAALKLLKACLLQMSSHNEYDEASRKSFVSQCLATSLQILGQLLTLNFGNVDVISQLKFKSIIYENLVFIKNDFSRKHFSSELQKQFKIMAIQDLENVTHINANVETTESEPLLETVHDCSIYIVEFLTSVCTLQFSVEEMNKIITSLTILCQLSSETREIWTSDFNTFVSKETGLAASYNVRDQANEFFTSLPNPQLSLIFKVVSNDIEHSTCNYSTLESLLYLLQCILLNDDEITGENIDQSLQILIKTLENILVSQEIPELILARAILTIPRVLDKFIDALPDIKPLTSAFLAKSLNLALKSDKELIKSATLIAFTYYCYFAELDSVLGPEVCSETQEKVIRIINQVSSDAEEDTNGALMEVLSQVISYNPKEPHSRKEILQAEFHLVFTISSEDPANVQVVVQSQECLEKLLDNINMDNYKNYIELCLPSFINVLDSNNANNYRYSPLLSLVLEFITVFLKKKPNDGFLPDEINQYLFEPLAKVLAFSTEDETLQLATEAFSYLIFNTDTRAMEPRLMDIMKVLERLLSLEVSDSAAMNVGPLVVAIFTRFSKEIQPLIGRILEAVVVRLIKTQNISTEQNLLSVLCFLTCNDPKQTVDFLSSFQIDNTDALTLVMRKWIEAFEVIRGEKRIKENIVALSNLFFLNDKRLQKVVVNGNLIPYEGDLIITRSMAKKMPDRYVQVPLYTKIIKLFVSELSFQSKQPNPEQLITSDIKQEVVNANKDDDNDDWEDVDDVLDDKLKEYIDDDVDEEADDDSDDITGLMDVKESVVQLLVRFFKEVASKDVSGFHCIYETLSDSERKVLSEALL

Kd (Kap114pΔ(932-941)): 79.9 nM | Kd (Kap114pΔ(Y933)): 7.7 nM
B1: yTBP^C wild type (core domain of yeast TATA-box binding protein, a.a. 61-240) (domain or fragment, S. cerevisiae, UniProt P13393 61-240, looked up)
chain: SGIVPTLQNIVATVTLGCRLDLKTVALHARNAEYNPKRFAAVIMRIREPKTTALIFASGKMVVTGAKSEDDSKLASRKYARIIQKIGFAAKFTDFKIQNIVGSCDVKFPIRLEGLAFSHGTFSSYEPELFPGLIYRMVKPKIVLLIFVSGKIVLTGAKQREEIYQAFEAIYPVLSEFRKM
notes: modified pET28a, 6xHis tag followed by a PreScission site; also called yTBPC WT; His-yTBP (61-240); source: E. coli Rosetta, purified (Ni-NTA, HiTrap SP, Superdex 75); not shown: His6, N-terminal, cleaved
